Molecular target: cynomolgus CD40 overexpressed on CHO cells (cynomolgus) [GFP: P42212]
Experiment: flow cytometry on CHO cells expressing cynomolgus CD40

EC50: 7.28 nM
Substance: CP870893-IgG2 (antibody)

Source: patent EP4538288A1
